Drawing on patent US20200123267A1 (Genentech, published 2020), this text covers Kd, koff and kon for four molecules.

Residue numbers refer to the chain shown, from its start. Numbers in names are those of the source.

Experiment [1] concerns the target Human TfR extracellular domain containing an N-terminal His tag (human) (UniProt P02786). In words: SPR, bispecific antibody. For orientation: SPR reads the build-up and loss of mass on a sensor chip optically.
Experiment [2] has the same target. In words: SPR, monovalent, TfR captured via anti-His, bispecific injected.
In experiment [3] the target is T1, TfR (species and construct not stated, Table 13) (Homo sapiens (Human), UniProt P02786 89-760).
T1 construct: not shown: N-terminal His tag of the soluble TfR ecd construct
T1 sequence (P02786 89-760 G142S limits assumed): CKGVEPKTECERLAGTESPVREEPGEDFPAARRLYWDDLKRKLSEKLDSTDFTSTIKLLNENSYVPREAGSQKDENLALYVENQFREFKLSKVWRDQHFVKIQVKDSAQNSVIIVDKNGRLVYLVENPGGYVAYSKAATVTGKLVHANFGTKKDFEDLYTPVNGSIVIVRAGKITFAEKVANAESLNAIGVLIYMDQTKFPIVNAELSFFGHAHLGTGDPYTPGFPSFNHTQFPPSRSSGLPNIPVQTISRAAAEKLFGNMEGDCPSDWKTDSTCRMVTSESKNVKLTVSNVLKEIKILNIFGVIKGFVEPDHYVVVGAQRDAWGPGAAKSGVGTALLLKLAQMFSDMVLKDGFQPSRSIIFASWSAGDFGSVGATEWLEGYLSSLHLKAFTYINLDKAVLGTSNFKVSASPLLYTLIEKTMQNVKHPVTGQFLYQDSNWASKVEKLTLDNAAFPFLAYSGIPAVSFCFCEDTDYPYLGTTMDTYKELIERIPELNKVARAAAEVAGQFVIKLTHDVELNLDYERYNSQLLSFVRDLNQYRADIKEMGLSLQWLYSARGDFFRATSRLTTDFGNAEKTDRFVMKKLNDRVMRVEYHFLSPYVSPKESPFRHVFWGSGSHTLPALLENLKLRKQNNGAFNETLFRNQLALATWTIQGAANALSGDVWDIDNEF
In words: kinetic measurement, method not stated.

Chain of Human TfR extracellular domain containing an N-terminal His tag (human) (P02786 89-760 G142S): as the sequence (P02786 89-760 G142S limits assumed) above

B1: anti-TfR^2/BACE1 bispecific antibody (15G11.W92A arm, human IgG1 D265A N297G, knob in hole) (bispecific antibody, part only; not given: Anti-BACE1 arm and constant regions, V domains shown, not shown: another chain or arm of the molecule; a dimerising Fc or GST; small tags and cut ends)
VH: EVQLVQSGAEVKKPGASVKVSCKASGYTFTSYWMHWVRQAPGQRLEWIGEINPTNGRTNYIEKFKSRATLTVDKSASTAYMELSSLRSEDTAVYYCARGTRAYHYWGQGTMVTVSS
VL: DIQMTQSPSSLSASVGDRVTITCRASDNLYSNLAWYQQKPGKSPKLLVYDATNLADGVPSRFSGSGSGTDYTLTISSLQPEDFATYYCQHFAGTPLTFGQGTKVEIK
Broadly, the Kd is the concentration at which binding is half-saturated. Read a low Kd as higher affinity. In general, koff refers to the first-order rate constant of dissociation. Low readings indicate slow dissociation, high ones fast dissociation. Usually kon stands for a measure of how fast the partners come together. B1 had a Kd in experiment [1] of 270 nM. In experiment [2], the Kd is 295 nM, the off-rate constant (koff) was found to be 0.0377 s⁻¹ and the kon was determined as 128000 M⁻¹ s⁻¹.

B2: anti-TfR^1/BACE1 bispecific antibody (15G11.v5 arm, human IgG1 D265A N297G, knob in hole) (bispecific antibody, part only; not given: Anti-BACE1 arm and constant regions, V domains shown, not shown: another chain or arm of the molecule; a dimerising Fc or GST; small tags and cut ends)
VH: B1 VH
VL: B1 VL with A92W
B2: the Kd in experiment [1] is 10 nM.

B3: antiTfR.52A.M108L.Fab (Fab, V domains shown)
VH: B1 VH with N52A, M111L
VL: B1 VL with A92W
notes: Fab; also called anti-TfR Fab comprising the M108L mutation
Consider B3, for which, in experiment [3], the koff worked out at 0.0231 s⁻¹ and the association rate constant (kon) was 320000 M⁻¹ s⁻¹.

B4: Hu15G11.HC52A Fab (Fab, V domains shown)
VH: B1 VH with N52A
VL: B1 VL with A92W
notes: Fab; also called antiTfR.52A.Fab; 15G11.52A Fab
In experiment [3], B4 gave a koff of 0.0204 s⁻¹ and a kon of 371000 M⁻¹ s⁻¹.
